Measurements published in patent publication US20140303084.
Numbering of substitutions follows the chain as printed.

Assays:
[1] = test system: T1, SKQGAPISPDrRAAGKLTCLASYCWLFWTGIA
T1 sequence: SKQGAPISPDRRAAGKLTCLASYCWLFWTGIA

[2] = test system: T2, RRAPGKLT-Dab-LASY-Asp-WLFWTGIA-CONH2
T2 sequence: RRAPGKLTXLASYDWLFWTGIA

[3] = test system: T3, RRAPGKLTCLASYAWLCWTGIA-COOH
T3 sequence: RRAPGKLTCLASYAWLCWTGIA

RRAPGKLQCLASYCWLFWTKIA = test system: T4, RRAPGKLQCLASYCWLFWTKIA
T4 sequence: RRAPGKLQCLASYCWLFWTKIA

[4] = test system: T5, RRAPGKLT-Asp-LASY-Orn-WLFWTGIA-COOH
T5 sequence: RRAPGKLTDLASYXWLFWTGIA

[5] = test system: T6, Glu(Biotinyl-PEG)-RAPGKLTCLASYCWLFWTGIA
T6 sequence: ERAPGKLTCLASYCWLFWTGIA

RAAPGKLQCLASYCWLFWTGIA = test system: T7, RAAPGKLQCLASYCWLFWTGIA
T7 sequence: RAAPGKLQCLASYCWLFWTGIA

[6] = test system: T8, RRAPGKLTCLASYCWLF WTGWA VLARVPVGWT
T8 sequence: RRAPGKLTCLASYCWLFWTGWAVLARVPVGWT

KLACLASYCWLF = test system: T9, KLACLASYCWLF
T9 sequence: KLACLASYCWLF

Ac-KLTCLASYCWLF = test system: T10, Ac-KLTCLASYCWLF
T10 sequence: KLTCLASYCWLF

GKLQCLASYCWLFWTGIA = test system: T11, GKLQCLASYCWLFWTGIA
T11 sequence: GKLQCLASYCWLFWTGIA

[7] = test system: T12, RRAPGKLT-Asp-LASY-Dap-WLFWTGIA-CONH2
T12 sequence: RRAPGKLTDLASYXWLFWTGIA

ARAPGKLQCLASYCWLFWTGIA = test system: T13, ARAPGKLQCLASYCWLFWTGIA
T13 sequence: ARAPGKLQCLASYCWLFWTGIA

RRAPGKLQCLASYCWLFWT = test system: T14, RRAPGKLQCLASYCWLFWT
T14 sequence: RRAPGKLQCLASYCWLFWT

[8] = test system: T15, RSHSLDRMAG RRAPG KLTCLASYCWLFWTGIA
T15 sequence: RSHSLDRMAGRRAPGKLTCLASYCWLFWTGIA

[9] = test system: T16, RRAPGKLT-Lys-LASY-Asp-WLFWTGIA-COOH
T16 sequence: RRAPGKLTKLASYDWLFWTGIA

KLTCLASYCWL-MePhe = test system: T17, KLTCLASYCWL-MePhe
T17 sequence: KLTCLASYCWLF

RRAPGKLQCLASYCWLFW = test system: T18, RRAPGKLQCLASYCWLFW
T18 sequence: RRAPGKLQCLASYCWLFW

[10] = test system: T19, RRAPGKLTCLASYAWCFWTGIA-COOH
T19 sequence: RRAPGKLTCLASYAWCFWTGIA

rRAPGKLTCLASYCWLFSTGIA = test system: T20, rRAPGKLTCLASYCWLFSTGIA
T20 sequence: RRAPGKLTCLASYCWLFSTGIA

RRAPGKLQCLASYCWLFKTGIA = test system: T21, RRAPGKLQCLASYCWLFKTGIA
T21 sequence: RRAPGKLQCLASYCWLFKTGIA

RRAPGKLTcLASYCWLFWTGIA = test system: T22, RRAPGKLTcLASYCWLFWTGIA
T22 sequence: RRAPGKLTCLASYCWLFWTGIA

[11] = test system: T23, QRAGRVARLH RRAPN KLTCLASYCWLFWTGIA
T23 sequence: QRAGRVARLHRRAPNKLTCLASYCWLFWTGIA

KITCLASYCWLF = test system: T24, KITCLASYCWLF
T24 sequence: KLTCLASYCWLF

[12] = test system: T25, WRAGLDESQR DRAPG KLTCLASYCWLFWTGIA
T25 sequence: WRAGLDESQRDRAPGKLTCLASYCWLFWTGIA

[13] = test system: T26, PRIRTVGPGSRSASGKLTCLASYCWLLWTGIA
T26 sequence: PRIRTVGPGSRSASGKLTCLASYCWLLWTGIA

[14] = test system: T27, SRIRTVSPGSRSASGKSTCLASYCWLFWTGIA
T27 sequence: T26 sequence with P1S, G7S, L17S, L27F

[15] = test system: T28, AVVRGQEPTH RRTPG KLTCLASYCWLFWTGIA
T28 sequence: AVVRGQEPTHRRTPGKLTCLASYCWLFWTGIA

KLT-Glu-LASY-Dap-WLF = test system: T29, KLT-Glu-LASY-Dap-WLF
T29 sequence: KLTELASYXWLF

KLTCL-Dpr-SYCWLF = test system: T30, KLTCL-Dpr-SYCWLF
T30 sequence: KLTCLXSYCWLF

VSGTGRLTCVASYCWMFQLGIF = test system: T31, VSGTGRLTCVASYCWMFQLGIF
T31 sequence: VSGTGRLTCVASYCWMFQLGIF

[16] = test system: T32, RRAPGKLTCLASYCWLF LTGWA RVPLPPRPHP
T32 sequence: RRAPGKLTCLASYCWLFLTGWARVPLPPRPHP

rRAAGKLTCLASYCWLFATGIA = test system: T33, rRAAGKLTCLASYCWLFATGIA
T33 sequence: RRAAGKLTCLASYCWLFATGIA

KLTCLASYCWIF = test system: T34, KLTCLASYCWIF
T34 sequence: KLTCLASYCWLF

[17] = test system: T35, SRIRTVGPGSRSASGKSTCLASYCWLFWTGIA
T35 sequence: T26 sequence with P1S, L17S, L27F

[18] = test system: T36, PRIRTSGPGSRSASGKLTCLASYCWLFWTGIA
T36 sequence: T26 sequence with V6S, L27F

compound 19 = test system: T37, compound 19
T37 sequence: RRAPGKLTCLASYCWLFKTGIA

[19] = test system: T38, Biotin-PEG2-LYTAWIKCQFARLPGCALSGRW
T38 sequence: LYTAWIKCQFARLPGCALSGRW

rRAAGKATCLASYCWLFATGIA = test system: T39, rRAAGKATCLASYCWLFATGIA
T39 sequence: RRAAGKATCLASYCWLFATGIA

[20] = test system: T40, QWQIAGQVLKRRAPA KLTCLASYCWLFWTGIA
T40 sequence: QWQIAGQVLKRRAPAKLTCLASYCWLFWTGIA

[21] = test system: T41, RRAPGKLT-Lys-LASY-Asp-WLFWTGIA-CONH2
T41 sequence: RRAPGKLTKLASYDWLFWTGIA

[22] = test system: T42, TGLLQGRRDE RARPP KLTCLASYCWLFWTGIA
T42 sequence: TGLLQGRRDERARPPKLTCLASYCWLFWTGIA

k-MeLeu-TCLASYCQLF = test system: T43, k-MeLeu-TCLASYCQLF
T43 sequence: KLTCLASYCQLF

[23] = test system: T44, SKQGRPISPDrRAAGKLTCLASYCWLFWTG
T44 sequence: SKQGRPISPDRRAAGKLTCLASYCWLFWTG

KRAPGKLQCLASYCWLFWTGIA = test system: T45, KRAPGKLQCLASYCWLFWTGIA
T45 sequence: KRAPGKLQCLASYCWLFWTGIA

[24] = test system: T46, PQTRDPSSRD RRAPG KLTCLASYCWLFWTGIA
T46 sequence: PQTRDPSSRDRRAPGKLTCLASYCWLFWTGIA

[25] = test system: T47, RRAPGKLTCLAS-MeTyr-CWLFWTGIA
T47 sequence: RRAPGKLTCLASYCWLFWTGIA

[26] = test system: T48, SKQGRAISPDrRAAGKLTCLASYCWLFWTGIA
T48 sequence: T1 sequence with A5R, P6A

APGKLQCLASYCWLFWTGIA = test system: T49, APGKLQCLASYCWLFWTGIA
T49 sequence: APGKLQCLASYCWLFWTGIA

Substance: human Factor IXa
- Vmax, FXa generation assay [1]: > 3
- Vmax, FXa generation assay [2]: > 2
- Vmax, FXa generation assay [3]: > 0.5
- Vmax, FXa generation assay; (++) means 1-2 (RRAPGKLQCLASYCWLFWTKIA): (++)
- Vmax, FXa generation assay; (++) means 1-2 [4]: (++)
- Vmax, FXa generation assay [5]: > 0.8
- Vmax, FXa generation assay (RAAPGKLQCLASYCWLFWTGIA): > 2
- Vmax, FXa generation assay [6]: > 2
- Vmax, FXa generation assay (KLACLASYCWLF): > 2
- Vmax, FXa generation assay; (++) means 1-2 (Ac-KLTCLASYCWLF): (++)
- Vmax, FXa generation assay (GKLQCLASYCWLFWTGIA): > 2
- Vmax, FXa generation assay [7]: > 2
- Vmax, FXa generation assay (ARAPGKLQCLASYCWLFWTGIA): > 2
- Vmax, FXa generation assay (RRAPGKLQCLASYCWLFWT): > 2
- Vmax, FXa generation assay [8]: > 3
- Vmax, FXa generation assay [9]: > 0.5
- Vmax, FXa generation assay; (++) means 1-2 (KLTCLASYCWL-MePhe): (++)
- Vmax, FXa generation assay (RRAPGKLQCLASYCWLFW): > 2
- Vmax, FXa generation assay [10]: > 2
- Vmax, FXa generation assay; (++) means 1-2 (rRAPGKLTCLASYCWLFSTGIA): (++)
- Vmax, FXa generation assay (RRAPGKLQCLASYCWLFKTGIA): > 0.2
- Vmax, FXa generation assay; (++) means 1-2 (RRAPGKLTcLASYCWLFWTGIA): (++)
- Vmax, FXa generation assay [11]: > 2
- Vmax, FXa generation assay (KITCLASYCWLF): > 2
- Vmax, FXa generation assay; (++) means 1-2 [12]: (++)
- Vmax, FXa generation assay [13]: > 3
- Vmax, FXa generation assay [14]: > 3
- Vmax, FXa generation assay [15]: > 3
- Vmax, FXa generation assay; (++) means 1-2 (KLT-Glu-LASY-Dap-WLF): (++)
- Vmax, FXa generation assay; (++) means 1-2 (KLTCL-Dpr-SYCWLF): (++)
- Vmax, FXa generation assay; (++) means 1-2 (VSGTGRLTCVASYCWMFQLGIF): (++)
- Vmax, FXa generation assay; (++) means 1-2 [16]: (++)
- Vmax, FXa generation assay; (++) means 1-2 (rRAAGKLTCLASYCWLFATGIA): (++)
- Vmax, FXa generation assay (KLTCLASYCWIF): > 3
- Vmax, FXa generation assay [17]: > 3
- Vmax, FXa generation assay [18]: > 3
- Vmax, FXa generation assay with hFIXa (compound 19): > 2
- Vmax, FXa generation assay [19]: > 1.5
- Vmax, FXa generation assay; (++) means 1-2 (rRAAGKATCLASYCWLFATGIA): (++)
- Vmax, FXa generation assay [20]: > 2
- Vmax, FXa generation assay; (++) means 1-2 [21]: (++)
- Vmax, FXa generation assay [22]: > 3
- Vmax, FXa generation assay (k-MeLeu-TCLASYCQLF): > 3
- Vmax, FXa generation assay [23]: > 2
- Vmax, FXa generation assay (KRAPGKLQCLASYCWLFWTGIA): > 2
- Vmax, FXa generation assay [24]: > 3
- Vmax, FXa generation assay; (++) means 1-2 [25]: (++)
- Vmax, FXa generation assay [26]: > 3
- Vmax, FXa generation assay; (++) means 1-2 (APGKLQCLASYCWLFWTGIA): (++)
